From paper PMC11952658
Blank lines part the entries; values can stand above or below the substance they belong to.

Tests used:
[1] = test system: T1, LIG3α WT (nuclear), P49916-3; assay: single-molecule (SMADNE, optical tweezers); details: 20 mM HEPES pH 7.5, 150 mM NaCl, 1 mM DTT, 5% glycerol, 0.5 mg/ml BSA, 1 mM trolox, 25 °C, nuclear extract diluted 1:10, 10 pN (λ DNA) or 4-5 pN (NCP)
T1 sequence: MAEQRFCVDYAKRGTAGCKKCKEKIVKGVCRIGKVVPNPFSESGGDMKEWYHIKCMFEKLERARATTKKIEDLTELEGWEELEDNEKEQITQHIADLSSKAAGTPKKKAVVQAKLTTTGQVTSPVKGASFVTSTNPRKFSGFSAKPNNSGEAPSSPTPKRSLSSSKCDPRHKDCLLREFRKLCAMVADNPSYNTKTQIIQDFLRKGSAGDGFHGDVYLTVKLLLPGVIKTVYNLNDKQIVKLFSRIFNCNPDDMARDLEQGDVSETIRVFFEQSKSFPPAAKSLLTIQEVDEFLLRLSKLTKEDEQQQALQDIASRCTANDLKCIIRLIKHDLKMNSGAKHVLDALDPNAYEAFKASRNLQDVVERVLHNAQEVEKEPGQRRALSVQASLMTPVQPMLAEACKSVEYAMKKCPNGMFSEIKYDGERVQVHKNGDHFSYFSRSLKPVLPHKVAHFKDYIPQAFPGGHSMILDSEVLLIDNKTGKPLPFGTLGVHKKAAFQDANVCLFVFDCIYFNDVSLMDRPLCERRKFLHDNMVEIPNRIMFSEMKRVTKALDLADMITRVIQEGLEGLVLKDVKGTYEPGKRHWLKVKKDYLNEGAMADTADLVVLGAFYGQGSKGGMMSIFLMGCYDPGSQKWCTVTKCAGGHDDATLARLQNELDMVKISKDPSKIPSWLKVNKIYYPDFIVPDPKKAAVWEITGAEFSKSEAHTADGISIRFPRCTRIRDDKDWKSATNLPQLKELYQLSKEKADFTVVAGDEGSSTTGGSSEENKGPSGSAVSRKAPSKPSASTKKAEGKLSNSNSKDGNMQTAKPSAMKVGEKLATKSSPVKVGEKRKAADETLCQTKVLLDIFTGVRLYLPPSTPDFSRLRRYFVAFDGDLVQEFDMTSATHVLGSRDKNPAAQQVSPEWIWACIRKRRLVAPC

XRCC1-YFP [2] = target: XRCC1-YFP (UniProt P18887); assay: single-molecule (SMADNE, optical tweezers); details: 20 mM HEPES pH 7.5, 150 mM NaCl, 1 mM DTT, 5% glycerol, 0.5 mg/ml BSA, 1 mM trolox, 25 °C, nuclear extract diluted 1:10, 10 pN (λ DNA) or 4-5 pN (NCP)
[3] = test system: T2, LIG3α ZnF-BRCT internal_change, P49916-3; assay: single-molecule (SMADNE, optical tweezers); details: 20 mM HEPES pH 7.5, 150 mM NaCl, 1 mM DTT, 5% glycerol, 0.5 mg/ml BSA, 1 mM trolox, 25 °C, nuclear extract diluted 1:10, 10 pN (λ DNA) or 4-5 pN (NCP)
T2 sequence: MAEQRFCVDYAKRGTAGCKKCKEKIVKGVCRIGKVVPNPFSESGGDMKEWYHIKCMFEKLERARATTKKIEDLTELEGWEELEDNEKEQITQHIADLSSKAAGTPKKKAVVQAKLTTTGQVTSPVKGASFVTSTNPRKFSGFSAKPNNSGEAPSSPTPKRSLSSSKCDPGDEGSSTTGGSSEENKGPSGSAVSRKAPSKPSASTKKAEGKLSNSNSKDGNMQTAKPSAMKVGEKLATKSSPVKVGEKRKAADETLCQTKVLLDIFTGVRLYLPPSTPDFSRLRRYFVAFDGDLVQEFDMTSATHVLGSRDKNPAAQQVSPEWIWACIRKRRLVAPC

[4] = target: N-terminal tagged Halo635 LIG3α (DNA Ligase 3α, nuclear, wild type); assay: single-molecule fluorescence colocalisation on tethered DNA (SMADNE, LUMICKS C-trap); as a1 but on calf-intestinal alkaline phosphatase (CIP) treated nicked λ DNA with 8 observable non-ligatable (5'OH) nick sites, 10 pN tension
[5] = target: Cy3-labeled human histone nucleosome core particle reconstituted on the Widom 601 sequence (human); assay: single-molecule fluorescence imaging on a tethered nucleosome (SMADNE, LUMICKS C-trap); Cy3-labeled undamaged 601 NCP ligated into 6 kb biotinylated DNA handles and tethered between optically trapped streptavidin beads, 4–5 pN tension; tagged proteins from nuclear extract; lifetimes from …; KD from koff, apparent kon and protein concentration
[6] = target: Halo 635-K421A LIG3α (catalytically dead); assay: single-molecule fluorescence colocalisation on tethered DNA (SMADNE, LUMICKS C-trap); nuclear extract diluted 1:10 in 20mM HEPES pH 7.5, 150mM NaCl, 1mM DTT, 5% glycerol, 0.5mg/ml BSA, 1mM trolox; nicked λ DNA with eight observable ligatable nicks tethered between streptavidin beads, 10 pN tension; kymographs at 10 frames per second; proteins at 0.1–2 nM
Halo 635-ΔZnF LIG3α = assay: as above
[7] = target: N-terminal tagged Halo635 LIG3α (DNA Ligase 3α, nuclear, wild type); assay: as above
XRCC1-YFP [8] = target: XRCC1-YFP (UniProt P18887); assay: single-molecule (SMADNE, optical tweezers); details: nicks with 3'OH and 5'P; 20 mM HEPES pH 7.5, 150 mM NaCl, 1 mM DTT, 5% glycerol, 0.5 mg/ml BSA, 1 mM trolox, 25 °C; nuclear extract diluted 1:10; 10 pN (λ DNA) or 4-5 pN (NCP)
LIG3α K421A = assay: single-molecule (SMADNE, optical tweezers); details: nicks with 3'OH and 5'P; 20 mM HEPES pH 7.5, 150 mM NaCl, 1 mM DTT, 5% glycerol, 0.5 mg/ml BSA, 1 mM trolox, 25 °C; nuclear extract diluted 1:10; 10 pN (λ DNA) or 4-5 pN (NCP)
LIG3α ΔZnF, P49916-3 = test system: T3, LIG3α ΔZnF, P49916-3; assay: single-molecule (SMADNE, optical tweezers); details: nicks with 3'OH and 5'P; 20 mM HEPES pH 7.5, 150 mM NaCl, 1 mM DTT, 5% glycerol, 0.5 mg/ml BSA, 1 mM trolox, 25 °C; nuclear extract diluted 1:10; 10 pN (λ DNA) or 4-5 pN (NCP)
T3 sequence: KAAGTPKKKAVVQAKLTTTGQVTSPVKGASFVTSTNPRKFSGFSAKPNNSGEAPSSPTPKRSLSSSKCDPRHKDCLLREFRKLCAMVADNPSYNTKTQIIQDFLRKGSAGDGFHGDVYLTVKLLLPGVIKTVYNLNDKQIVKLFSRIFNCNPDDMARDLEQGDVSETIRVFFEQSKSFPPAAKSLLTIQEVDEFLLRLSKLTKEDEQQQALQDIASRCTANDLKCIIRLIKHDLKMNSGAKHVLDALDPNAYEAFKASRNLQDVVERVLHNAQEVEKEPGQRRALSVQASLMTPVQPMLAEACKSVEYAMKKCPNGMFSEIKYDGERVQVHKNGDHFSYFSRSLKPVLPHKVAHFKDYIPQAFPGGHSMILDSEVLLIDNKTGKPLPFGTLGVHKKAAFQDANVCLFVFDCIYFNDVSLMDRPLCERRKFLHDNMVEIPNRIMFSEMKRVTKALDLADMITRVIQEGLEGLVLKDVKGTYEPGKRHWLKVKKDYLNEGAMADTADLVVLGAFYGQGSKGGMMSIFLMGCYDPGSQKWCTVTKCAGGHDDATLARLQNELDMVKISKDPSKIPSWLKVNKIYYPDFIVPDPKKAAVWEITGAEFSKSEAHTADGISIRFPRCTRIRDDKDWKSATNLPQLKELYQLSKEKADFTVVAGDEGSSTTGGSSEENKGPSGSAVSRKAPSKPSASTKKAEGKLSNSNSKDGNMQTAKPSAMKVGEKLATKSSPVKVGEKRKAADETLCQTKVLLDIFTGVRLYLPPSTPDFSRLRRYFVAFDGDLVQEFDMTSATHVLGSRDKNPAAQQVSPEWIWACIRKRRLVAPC

[9] = target: Cy3-labeled human histone nucleosome core particle reconstituted on the Widom 601 sequence (human); assay: single-molecule fluorescence imaging on a tethered nucleosome (SMADNE, LUMICKS C-trap); as a3 but 601 NCP with one non-ligatable nick (3'OH and 5'OH) at SHL 0, 5 pN tension
[10] = target: Cy3-labeled human histone nucleosome core particle reconstituted on the Widom 601 sequence (human); assay: single-molecule fluorescence imaging on a tethered nucleosome (SMADNE, LUMICKS C-trap); as a3 but 601 NCP with one non-ligatable nick (3'OH and 5'OH) at SHL -2.5, 5 pN tension
[11] = target: Cy3-labeled human histone nucleosome core particle reconstituted on the Widom 601 sequence (human); assay: single-molecule fluorescence imaging on a tethered nucleosome (SMADNE, LUMICKS C-trap); as a3 but 601 NCP with one non-ligatable nick (3'OH and 5'OH) at SHL -4.5, 5 pN tension
[12] = 5'-phosphates removed (5'OH at nicks)

Chain of XRCC1-YFP (P18887 whole entry): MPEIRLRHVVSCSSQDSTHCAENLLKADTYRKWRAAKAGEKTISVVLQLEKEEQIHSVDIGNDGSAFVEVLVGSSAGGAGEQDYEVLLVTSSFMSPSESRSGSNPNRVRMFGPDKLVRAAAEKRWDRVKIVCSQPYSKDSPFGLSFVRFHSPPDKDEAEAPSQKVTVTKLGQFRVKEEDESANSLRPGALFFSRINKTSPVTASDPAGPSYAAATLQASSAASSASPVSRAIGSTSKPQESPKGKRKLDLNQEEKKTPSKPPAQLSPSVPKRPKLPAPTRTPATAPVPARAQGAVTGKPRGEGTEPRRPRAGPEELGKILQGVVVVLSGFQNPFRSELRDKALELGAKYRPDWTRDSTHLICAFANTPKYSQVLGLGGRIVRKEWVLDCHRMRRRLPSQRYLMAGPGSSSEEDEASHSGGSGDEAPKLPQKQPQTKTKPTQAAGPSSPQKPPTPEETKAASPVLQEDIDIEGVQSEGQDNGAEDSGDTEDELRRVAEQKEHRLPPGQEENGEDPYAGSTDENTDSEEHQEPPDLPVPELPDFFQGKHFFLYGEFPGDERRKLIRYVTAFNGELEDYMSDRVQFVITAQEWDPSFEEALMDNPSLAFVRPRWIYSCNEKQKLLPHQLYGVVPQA
Chain of C-terminal YFP tagged XRCC1 (X-ray cross complementing protein 1) (P18887 whole entry): as above

Substance: CIP-treated nicked λ DNA, non-ligatable nicks
Kd [1, 12]: 1.64 nM
Kd (XRCC1-YFP [2]; [12]): 17 nM

Substance: CAACTGAGACCATGTACCCAGTTCGAATCGGATGTATATATCTGACACGTGCCTGGAGACTAGGGAGTAATCCCCTTGGCGGTTAAAACGCGGGGGACAGCGCGTACGTGCGTTTAAGCGGTGCTAGAGCTGTCTACGACCAATTGAGCGGCCTCGGCACCGGGATTCTCGATAACTCAGCAATAGTGGGTCTCA / ACCATGAGACCCACTATTGCTGAGTTATCGAGAATCCCGGTGCCGAGGCCGCTCAATTGGTCGTAGACAGCTCTAGCACCGCTTAAACGCACGTACGCGCTGTCCCCCGCGTTTTAACCGCCAAGGGGATTACTCCCTAGTCTCCAGGCACGTGTCAGATATATACATCCGATTCGAACTGGGTACATGGTCTCA [undamaged 601 NCP]
Kd ([1]; 5'-phosphate on both strands): 0.03 nM
Kd ([3]; 5'-phosphate on both strands): 1.1 nM
Kd (XRCC1-YFP [2]; 5'-phosphate on both strands): 0.6 nM

percent of binding events colocalized [4]: 9.7%
percent of binding events colocalized [6]: 7.6%
percent of binding events colocalized (Halo 635-ΔZnF LIG3α): 16.3%
average lifetime of both proteins together on the DNA [7]: 0.7 s
percent of binding events colocalized [7]: 17.1%
Substance: C-terminal YFP tagged XRCC1 (X-ray cross complementing protein 1) (from UniProt P18887 1-633) (natural protein)
Kd [5]: 0.6 nM

Substance: nicked λ DNA (Nt.BspQI), ligatable nicks
Kd (XRCC1-YFP [8]): 4 nM
Kd (LIG3α K421A): 0.4 nM
Kd ([1]; nicks with 3'OH and 5'P): 0.1 nM
Kd ([3]; nicks with 3'OH and 5'P): 3.2 nM
Kd (LIG3α ΔZnF, P49916-3): 0.09 nM
Kd (XRCC1-YFP [2]; nicks with 3'OH and 5'P): 1.5 nM

Substance: single non-ligatable nick, no NCP
Kd ([1]; non-ligatable nick): 2.5 nM

lifetime (Tau) [9]: 10.2 s
lifetime (Tau) [10]: 12.2 s
lifetime (Tau) [11]: 17.3 s
Substance: N-terminal tagged Halo635 LIG3α (DNA Ligase 3α, nuclear, wild type) (enzyme)
Kd [5]: 0.03 nM
lifetime [5]: 23.6 s
lifetime (Tau) [5]: 23.7 s
